The results in this text go back to the nanobody polyreactivity screen of Harvey et al. (2022).

This data set in a line: yeast display, Sf9 membrane polyspecificity reagent, FACS + sequencing; frameworks hold sequencing errors. The procedure, abridged:
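A synthetic nanobody library was expressed on Saccharomyces cerevisiae BJ5465 by galactose induction for 36–48 hours. The library was stained for 1 hour at 4 °C with 10% biotinylated, detergent-solubilized Sf9 membrane reagent and enriched with streptavidin microbeads before FACS. Low and high (top ~1%) gates were set on anti-HA fluorescence for expression and streptavidin fluorescence for reagent binding, and each polyreactivity label reflects the gate of origin.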
Turning to “QVQLVESGGGLVQAGGSLRLSCAASGSIFRWYAMGWYRQAPGKERELVAAITSGGSTYYADSVKGRFTISRDNAKNTVYLQMNSLKPEDTAVYYCNAAKLASHTYDYWGLGTQVTVSS”, the “polyreactivity (PSR sort gate)” value is “low polyreactivity”.

With “QVQLVESGGGLVQAGGSLRLSCAASGSIFRYNAMGWYRQAPGKERELVAAISASGGRTHDADSVKGRFTISRDNAKNTVYLQMNSLKPEDTAVYYCAAATYRGTSLYGYWGQGTQVTVSS”, the “polyreactivity (PSR sort gate)” value is on record as “high polyreactivity”.

“QVQLVESGGGLVQAGGSLRLSCAASGSIFRYNAMGWYRQAPGKERELVASISWSGGSTYYADSVKGRFTISRDNAKNTVYLQMNSLKPEDNAFYYCNVYGKYFRSRYDSWGQGTQVNVSS”: the “polyreactivity (PSR sort gate)” value is recorded as “high polyreactivity”.

Regarding “QVQLVESGGGLVQAGGSLRLSCAASGSIFRYNAMGWYRQEPGKERELVASINGGGGTYYPDSVKGRFTISRDNAKNTVYLQMNSLKPEDTAVLYCNTVVNSFSYASRFNFYYWGQGSQVTVSS”, the “polyreactivity (PSR sort gate)” value was “high polyreactivity”.

For “QVQLVESGGGLVQAGGSLRLSCAASGSIFRYYAMGWYRQAPGKERELVAGITGSTGRTYYADSVKGRFTISRDKAKNTVYLELNSLKPVDTEVYYCSARSRYYEYDYWGQGTQVTVTS”, the “polyreactivity (PSR sort gate)” value was “low polyreactivity”.

On to “QVQLVESGGGLVQAGGSLRLSCAASGSIFRYYAMGWYRQAPGKERELVAVITRGGSTYYADSVKGRFTISRDNAKNTVYLQMNSLKPEDTAVYYCAADYWPACMDRGYWGQATQVTVSS”, for which the “polyreactivity (PSR sort gate)” value is listed as “low polyreactivity”.

Regarding “QVQLVESGGGLVQAGGSLRLSCAASGSIFSAYAMGWYRQAPGKEREFVAGITSSGGRTYYADSVKGRFTISRDNAKNTVYLQMNSLKPEDTAVYYCAARFYKKDRRAYGYWGQGTQVTVSS”, the “polyreactivity (PSR sort gate)” value is “high polyreactivity”.

With “QVQLVESGGGLVQAGGSLRLSCAASGSIFSAYAMGWYRQAPRKEREFVAAITRRGGNTYYADSVKGRFTISRDNAKNTVYLQMNSLKPEDTAVYYCAAGFYYVYVWLGEYWGQGTQVTVSS”, the “polyreactivity (PSR sort gate)” value was “low polyreactivity”.

In the case of “QVQLVESGGGLVQAGGSLRLSCAASGSIFSDNAMGWYRQAPGKERELVAGISSGGGTNYADSVKGRFTISRDNAKNTVYLQMNSLKPEDTGVYDCNADQRDGLELDYWGQGTQVTVSS”, the “polyreactivity (PSR sort gate)” value is reported as “low polyreactivity”.

Take “QVQLVESGGGLVQAGGSLRLSCAASGSIFSDYAMGWYRQAPGKEREFVAAIDSSGSTYYADSVKGRFTISRDNAKNTVYLQMNSLKPEDTAVYYCAADHLLYSVYIYYYWGQGTQVTVSS”: the “polyreactivity (PSR sort gate)” value is given as “low polyreactivity”.

As to “QVQLVESGGGLVQAGGSLRLSCAASGSIFSDYAMGWYRQAPGKERELVAAISGTGGGTYYADSVKGRFTISRDNAKNTVYLQMNSLKPEDTAVYYCAADYVFAWWGDYYWGQGTQVTVSS”, the “polyreactivity (PSR sort gate)” value is “high polyreactivity”.

Turning to “QVQLVESGGGLVQAGGSLRLSCAASGSIFSDYAMGWYRQAPGKERELVAGISSGGGTTYADSVKGRFTISRDNAKNTVYLQMNSLIPEDTAVYYCNKQDQPVGRSGYPYGYDYWGQGTQVTVSS”, the “polyreactivity (PSR sort gate)” value is listed as “low polyreactivity”.

In the case of “QVQLVESGGGLVQAGGSLRLSCAASGSIFSFNAKGWYRQAPGKERELVAAITTSGGSTYYADSVKGRFTISRDNAKNTVYLQMNSLKPEDTAVYYCAAVRPDNSLYEPMDYWGQGTQVTVSS”, the “polyreactivity (PSR sort gate)” value is “low polyreactivity”.

Turning to “QVQLVESGGGLVQAGGSLRLSCAASGSIFSFNAMGWYRQAPGKERELVAAISYSGGSTYADSVKGRFTISRDNAKNTVYLHMNSLKPEDTAVYYCAADGLDYSSGGDGYWGQGTQVTVSS”, the “polyreactivity (PSR sort gate)” value was “low polyreactivity”.

Turning to “QVQLVESGGGLVQAGGSLRLSCAASGSIFSFYAMGGYRQPPGKEREFVATITYGSGSTHYADSVKGRFTISRDNAKITVYLQLNSLKPEDTAVYYCAAETVRYEWGESPAALFDYWGQGTQVTVSS”, the “polyreactivity (PSR sort gate)” value is on record as “low polyreactivity”.

With “QVQLVESGGGLVQAGGSLRLSCAASGSIFSFYAMGWYRQAPGKERELVATISSGDNTNYADSVKGRFTISRDNAKNTVYLQMNSLKPEDTAVYYCAADAWGVDREYDYWGQGTQVTVSS”, the “polyreactivity (PSR sort gate)” value is given as “low polyreactivity”.

“QVQLVESGGGLVQAGGSLRLSCAASGSIFSFYAMGWYRQAPGKRELVAAISGNGGSTFYADSVKGRFTISRDNAKNTVYLQMNSLKPEDTAVYYCAAYSYRYKYYYWGQGTQVTVSS”: the “polyreactivity (PSR sort gate)” value is recorded as “high polyreactivity”.

With “QVQLVESGGGLVQAGGSLRLSCAASGSIFSFYMGWYRQAPGKERELVAAISSRGGSTYYADSVKGRFTISRDNAKNTVYLQMISLKPEDTAVYYCAAAGGGKVSYRDYDYWGQGTQVTVSS”, the “polyreactivity (PSR sort gate)” value was “high polyreactivity”.

Regarding “QVQLVESGGGLVQAGGSLRLSCAASGSIFSGKAMGWYRQAPGKERELVASINRSGGSTYSADSVKGRFTISRDNAKYTVYLQMNSLKPEDTAVYSCAARRVWLAGYDSWGQGTQVTVSS”, the “polyreactivity (PSR sort gate)” value was “low polyreactivity”.

Regarding “QVQLVESGGGLVQAGGSLRLSCAASGSIFSGYAMGWYRQAPGKEREFVAAISSSGGRTYYADSVKGRFTISRDNAKNTVYLQMNSLKPEDTAVYYCNAVSSYGYDYWGQGTQVTVSS”, the “polyreactivity (PSR sort gate)” value was “high polyreactivity”.

“QVQLVESGGGLVQAGGSLRLSCAASGSIFSGYAMGWYRQAPGKERELVAAITGGGSTNYADSVKGRFTISRDNAKNTVYLQMTSLKPEDTAVYYCAAAPVSLPDYGYWGQGTQVTVSS”: the “polyreactivity (PSR sort gate)” value is reported as “low polyreactivity”.

With “QVQLVESGGGLVQAGGSLRLSCAASGSIFSGYTMGWYRQAPGKERELVAAITQRGTRTYYADSVKGRFTISRDNAKNTVYLQMNSLKPEDTAVYYCAADSVVVGSPGNDYWGQGTQVTVSS”, the “polyreactivity (PSR sort gate)” value is listed as “high polyreactivity”.

Regarding “QVQLVESGGGLVQAGGSLRLSCAASGSIFSHNAMGGYRQAPGKERELVASITGSGGSTYYAASVKGRFTISRDNAKNTVYLQMNSLKPEDTAVYYCAATYYPDVRGMDYWGQGTQVTVSS”, the “polyreactivity (PSR sort gate)” value is recorded as “low polyreactivity”.

Turning to “QVQLVESGGGLVQAGGSLRLSCAASGSIFSHNAMGWYRQAPGKERELVAAISRSGGSTYYADSVKGRFTISRDNAKNTVYLQMKSLKPEDTAVYYCAVRAYKVSRYYYWGQGSQVTVSS”, the “polyreactivity (PSR sort gate)” value is on record as “low polyreactivity”.

On to “QVQLVESGGGLVQAGGSLRLSCAASGSIFSINAMGWYRQAPGKERELVAAISWSGGSTYYADSVKGRFTISRDNAKNTVYLQMNSLKPEDTAVYYCAASYWDTEPGYREYDYWGQGTQVTVSS”, for which the “polyreactivity (PSR sort gate)” value is “low polyreactivity”.

With “QVQLVESGGGLVQAGGSLRLSCAASGSIFSINAMVSYRQAPGKERELVAAISASGGSTYYADSVKGRFTISRDFAKITVYLHMNSLKPEDTAVFYCAAEGSPTGYDYWGQGTQVTVSS”, the “polyreactivity (PSR sort gate)” value was “low polyreactivity”.

For the sequence “QVQLVESGGGLVQAGGSLRLSCAASGSIFSINTMGWYRQAPGKERELVAAITRSGSGTYYADSVKGRFTISRDNAKNTVYLQMNSLKPEDTAVYYCNADDWVGRSLRYDYWGQGTQVTVSS”, the “polyreactivity (PSR sort gate)” value is “low polyreactivity”.

Turning to “QVQLVESGGGLVQAGGSLRLSCAASGSIFSKNAMGWYRQAPGKERELVAAITWSGGRTYYADSVKGRFTISRDNAKNTVFLQMNSLKPEDTAVYYCAAVSRVRYYLQTYDSWGQGTQVTVSS”, the “polyreactivity (PSR sort gate)” value was “high polyreactivity”.

For “QVQLVESGGGLVQAGGSLRLSCAASGSIFSLNAMGWYRPAPGKERELVAVINRSGTRTYYADSVKGRFTISRDNAKNTVYLQMNSLKPEDTAVYYCNAQPSSGSDAQNEYWGQGTQVTVSS”, the “polyreactivity (PSR sort gate)” value was “high polyreactivity”.

In the case of “QVQLVESGGGLVQAGGSLRLSCAASGSIFSLNAMGWYRQAPGKEREFVAASGGGSTYYADSVKGRFTISRDNAKNTVYLQMNSLKPEDCAVYYCAARVLTDELDYWGQGTQVTVSS”, the “polyreactivity (PSR sort gate)” value is on record as “low polyreactivity”.

Regarding “QVQLVESGGGLVQAGGSLRLSCAASGSIFSLYAMGWYRQAPGKERELVAAISSSGTSTYYADSVKGRFTISRDNAKNTVYLQMYSLKTEDTAVYYCNAYRRRATYNGDYWGQGTQVTVSS”, the “polyreactivity (PSR sort gate)” value is “high polyreactivity”.

Turning to “QVQLVESGGGLVQAGGSLRLSCAASGSIFSLYDMGWYRQAPGKERELVASITWSGGSTDYADSVKGRFTISRDNAKNTVYLQMNSLKPEDTAVYYCAAYSYTSIFDYWGQGTQVTVSS”, the “polyreactivity (PSR sort gate)” value is reported as “low polyreactivity”.

Take “QVQLVESGGGLVQAGGSLRLSCAASGSIFSLYVMGWYRQAPGKERELGAAITSGGRTNYADSVKGRFTISRDNAKNTVYLLMNSLKPEDTAVYDCAARFPSRYGRYGYWGQGTQVTVSS”: the “polyreactivity (PSR sort gate)” value is listed as “high polyreactivity”.

For the sequence “QVQLVESGGGLVQAGGSLRLSCAASGSIFSPNAMGWNRQAPGKERELVAAISRRGGRTYYADSVKGRFTISRDNAKNTVYFQMNSLKPEDTAVYYCNAVWYSDTYTNPQYDYWGQGTQVTVSS”, the “polyreactivity (PSR sort gate)” value is on record as “high polyreactivity”.

For the sequence “QVQLVESGGGLVQAGGSLRLSCAASGSIFSPYAMGWYRQAPGKARELVAVITRSGGRTYYADSVKGRFTISRDNAKNTVYLQMNSLKPEDTAVYYCAATPKSWSSSTRDYWGQGTQVTVSS”, the “polyreactivity (PSR sort gate)” value is recorded as “high polyreactivity”.

Take “QVQLVESGGGLVQAGGSLRLSCAASGSIFSPYAMGWYRQAPGKERELVAAISDRGGSTYYADSVKVRFTISRDNAKNTVYLQMNSLKPEDTAVYYCAARVGYAFRYYYWGQGTQVTVSS”: the “polyreactivity (PSR sort gate)” value is “high polyreactivity”.

As to “QVQLVESGGGLVQAGGSLRLSCAASGSIFSQNAMGWYRQAPGKERELVAAITSSGGNTYADSVKGRFTISRDNAKNTVYLQMNRLKPEDTAVYYCAAGHLVILNRSEYYYWGQGSQVTVSS”, the “polyreactivity (PSR sort gate)” value is recorded as “low polyreactivity”.

Take “QVQLVESGGGLVQAGGSLRLSCAASGSIFSQYAMGWSRQAPGKERELVAAISSSGDSTNYADSVKGRFTISRDNAKNTVYLQMNSLKPEDTAVYYCAADFDWFIWGYDYWGQGTQVTVSS”: the “polyreactivity (PSR sort gate)” value is “low polyreactivity”.

“QVQLVESGGGLVQAGGSLRLSCAASGSIFSQYAMGWYRQAPGTERDFVAAINWSGGRTRYADSVKGRFTISRDNAKNTVYLQMNSLKPEDTAVYYCAKVYSLYSYSGRYDYWGQGTQVTVSS”: the “polyreactivity (PSR sort gate)” value is on record as “high polyreactivity”.

Turning to “QVQLVESGGGLVQAGGSLRLSCAASGSIFSRNAMGWYRQEPGKEREFVAAISYSSGSTYYADSVNGRFTISRDNAKNTVYLQMNSLKPEDTAVYYCAADTTKLQGVEGDYWGQGTQVTVSS”, the “polyreactivity (PSR sort gate)” value is recorded as “low polyreactivity”.

On to “QVQLVESGGGLVQAGGSLRLSCAASGSIFSRYAMGWYRQAPGKERELVAAISWRGVSTYYADSVKGRFTISRDNAKNTVYLQMNSLKPEDTAVYYCAADTGRYLDSNYWGQGTQVTVSS”, for which the “polyreactivity (PSR sort gate)” value is listed as “high polyreactivity”.
